The values below come from patent US20060281078, “Human fast-1 gene” (published 2006).

One data set has as its target T1, hFAST-1 (Homo sapiens) (UniProt O75593).
T1 sequence: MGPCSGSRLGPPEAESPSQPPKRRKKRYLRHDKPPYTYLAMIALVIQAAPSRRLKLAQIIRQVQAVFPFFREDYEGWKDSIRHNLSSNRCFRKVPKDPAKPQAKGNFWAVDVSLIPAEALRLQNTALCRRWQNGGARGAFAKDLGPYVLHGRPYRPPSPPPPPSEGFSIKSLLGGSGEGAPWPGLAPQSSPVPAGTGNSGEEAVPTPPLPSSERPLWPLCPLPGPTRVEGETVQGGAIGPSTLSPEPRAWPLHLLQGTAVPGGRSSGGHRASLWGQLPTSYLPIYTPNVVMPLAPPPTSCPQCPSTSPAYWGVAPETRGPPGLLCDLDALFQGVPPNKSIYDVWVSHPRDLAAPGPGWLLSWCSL
The data set can be described thus: cell_activity. The settings on record: MvLu1 cells; TGF-beta dependent luciferase activation.

Data set [1] deals with T2, hFAST-1 full length (FAST-FL) (Homo sapiens, UniProt O75593 SEQ:1-365).
T2 sequence: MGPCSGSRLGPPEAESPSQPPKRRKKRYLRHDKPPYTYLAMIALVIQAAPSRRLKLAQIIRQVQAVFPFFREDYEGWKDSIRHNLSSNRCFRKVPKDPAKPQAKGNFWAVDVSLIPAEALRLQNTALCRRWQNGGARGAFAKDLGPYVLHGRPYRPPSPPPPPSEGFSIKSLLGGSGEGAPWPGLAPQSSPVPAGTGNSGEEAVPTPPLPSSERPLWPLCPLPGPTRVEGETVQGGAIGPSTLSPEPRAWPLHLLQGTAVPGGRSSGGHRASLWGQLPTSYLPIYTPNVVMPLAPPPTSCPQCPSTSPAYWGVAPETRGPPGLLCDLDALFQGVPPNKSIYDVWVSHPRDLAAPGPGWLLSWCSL
The data set is described as follows: EMSA; two consensus positions altered. To be noted: tags: GST N-terminal fusion (pGEX2TK); label: 32P. The protocol:
(§1) Derivation of clones and EMSA were performed as described in Example 7. Mock selected clones were used for comparison (“C” lanes). The positions of free probe and hFAST-1 bound probe (“shift”) are indicated. FIG. 4B provides a sequence summary of clones that bound to hFAST-1. The sequences of the relevant segment of 17 hFAST-1-binding clones were determined and the fractions of clones containing the nucleotides at the indicated positions relative to the consensus are shown. […] Wild-type (FBE) or mutant (FBE*) oligonucleotides were incubated with 0.5-2.0 μg of GST fusion proteins containing full-length hFAST-1 (FAST-FL) or only its forkhead domain (FAST-FH). GST fusion proteins containing the MH1 or MH2 domains of Smad2 (S-N and S-C, respectively; Zawel et al., 1998) were used as controls. The FBE* oligonucleotide contained the sequence TCTGTATC in place of the consensus TGTGTATT but was otherwise identical to FBE. […] EMSA was performed with (+) or without (−) 1 μg of GST fusion protein containing full length FAST-1 (“FAST-FL”). The sequence of the 50 bp ARE oligonucleotide differed by only one bp from ARE*.
(§2) Sixty bp probes corresponding to single clones were generated for EMSA by colony PCR using the following ³²P-labeled primers: 5′-[…]-3′ (SEQ ID NO:14) and 5′-[…]-3′ (SEQ ID NO:15). […]
(In general: In EMSA bound probe runs differently from free probe, usually more slowly.)

For data set [2], the target named is T2, hFAST-1 full length (FAST-FL). The data set is described as follows: EMSA; 1 ug GST fusion. To be noted: tags: GST N-terminal fusion (pGEX2TK); label: 32P. The protocol: as §1, §2
For data set [3] the target is unchanged. The data set is described as follows: EMSA; single base substitution in FBE. The settings on record: tags: GST N-terminal fusion (pGEX2TK); label: 32P. The protocol:
as §1, §2

Another data set concerns the target Smad2 MH1 domain (S-N) (Homo sapiens, UniProt Q15796 Q15796:1-182). The data set is described as follows: EMSA; specificity control. The settings on record: tags: GST fusion; label: 32P. Here is the method:
as §1, §2

The target of the next data set is Smad2 MH2 domain (S-C) (Homo sapiens, UniProt Q15796 SEQ:193-477). The data set is described as follows: EMSA; specificity control. To be noted: tags: GST fusion; label: 32P. Here is the method:
as §1, §2

Data set [4] concerns the target T2, hFAST-1 full length (FAST-FL). The data set can be described thus: EMSA; about 0.4 uM protein, 0.5 ng DNA. The settings on record: tags: GST N-terminal fusion (pGEX2TK); label: 32P. Here is the method:
as §1, §2

Chain of Smad2 MH2 domain (S-C) (Q15796 183-467): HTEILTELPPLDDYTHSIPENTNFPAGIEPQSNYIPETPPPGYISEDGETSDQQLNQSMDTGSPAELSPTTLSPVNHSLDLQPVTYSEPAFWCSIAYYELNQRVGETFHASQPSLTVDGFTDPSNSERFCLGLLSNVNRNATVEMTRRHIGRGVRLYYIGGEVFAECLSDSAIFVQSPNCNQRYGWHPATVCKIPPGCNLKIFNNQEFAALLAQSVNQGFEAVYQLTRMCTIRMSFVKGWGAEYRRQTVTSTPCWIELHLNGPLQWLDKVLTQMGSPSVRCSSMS
Chain of Smad2 MH1 domain (S-N) (Q15796 1-182, one chain of several): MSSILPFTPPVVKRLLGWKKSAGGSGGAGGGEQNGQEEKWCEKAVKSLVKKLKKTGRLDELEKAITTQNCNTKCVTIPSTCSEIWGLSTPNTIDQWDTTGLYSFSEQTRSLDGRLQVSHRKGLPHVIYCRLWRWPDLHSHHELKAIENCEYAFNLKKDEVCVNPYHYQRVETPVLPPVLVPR

On to “AR3-lux reporter (three copies of Mix.2 ARE)”, for which the activity in the data set with hFAST-1 (Homo sapiens) is greater than 30 fold.

B1: FBE* (dsDNA)
DNA 1: CGGATTCTGTATCGGCTGTAC
DNA 2: GTACAGCCGATACAGAATCCG
As for B1, the binding result in data set [1] is “no binding”.

B2: ARE (Mix.2) (dsDNA)
DNA 1: TATCTGCTGCCCTAAAATGTGTATTCCATGGAAATGTCTGCCCTTCTCTCCGTAC
DNA 2: GTACGGAGAGAAGGGCAGACATTTCCATGGAATACACATTTTAGGGCAGCAGATA
On to B2, for which, in data set [2], the binding result was “binds”.

B3: ARE mutant (dsDNA)
DNA 1: TATCTGCTGCCCTAAAATCTGTATTCCATGGAAATGTCTGCCCTTCTCTCCGTAC
DNA 2: GTACGGAGAGAAGGGCAGACATTTCCATGGAATACAGATTTTAGGGCAGCAGATA
Consider B3, for which the binding result in data set [3] is listed as “no binding”.

B4: FBE (dsDNA)
DNA 1: CGGATTGTGTATTGGCTGTAC
DNA 2: GTACAGCCAATACACAATCCG
Regarding B4, the binding result with Smad2 MH1 domain (S-N) was “no binding”; in the data set with Smad2 MH2 domain (S-C), “no binding”; in data set [4], “binds”.
